{"source": "paper PMC8334348", "target": "Brucella abortus peptidoglycan hydrolase inhibitor A (PhiA), mature periplasmic form (Brucella abortus)", "assay": "SEC-MALS", "data": [{"substance": "Brucella abortus peptidoglycan hydrolase inhibitor A (PhiA), mature periplasmic form (natural protein)", "values": [{"measurement": "stoichiometry N", "result": 4}]}]}
